Eight molecules from article PMC7289862, “Real-time tracking reveals catalytic roles for the two DNA binding sites of Rad51” (Nature Communications, 2019) can be followed below.

The target in data set [1] is T1, Rad51-L2 (Schizosaccharomyces pombe, UniProt P36601 1-365, V295A).
T1 sequence: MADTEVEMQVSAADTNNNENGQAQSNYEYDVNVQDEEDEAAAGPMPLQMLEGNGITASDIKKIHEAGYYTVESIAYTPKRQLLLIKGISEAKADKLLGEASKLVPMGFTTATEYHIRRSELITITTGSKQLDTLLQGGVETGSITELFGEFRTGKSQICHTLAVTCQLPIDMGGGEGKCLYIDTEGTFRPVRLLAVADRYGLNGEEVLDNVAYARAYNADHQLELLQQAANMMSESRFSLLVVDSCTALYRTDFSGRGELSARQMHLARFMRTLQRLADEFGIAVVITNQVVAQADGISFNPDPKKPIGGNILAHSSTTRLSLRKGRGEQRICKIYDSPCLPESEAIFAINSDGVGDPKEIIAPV
The data set can be described thus: fluorescence anisotropy; 1 mM ATP, 3 mM MgCl2; Hill n 1.80; 30 mM HEPES-KOH pH 7.5, 100 mM KCl, 3 mM MgCl2, 1 mM DTT, 5% glycerol, 1 mM ATP, 25 C (EMSA: 2 mM ATP, 37 C, then 0.2% glutaraldehyde). As to conditions: protein: recombinant; label: 5' TAMRA on strand 1; blunt.

Data set [2] has as its target T2, Rad51 wild-type (Schizosaccharomyces pombe, UniProt P36601 1-365).
T2 sequence: T1 sequence with A295V
The experiment in a line: fluorescence anisotropy; 1 mM ATP, 3 mM MgCl2; Hill n 1.99; main text prints 2.79 uM; 30 mM HEPES-KOH pH 7.5, 100 mM KCl, 3 mM MgCl2, 1 mM DTT, 5% glycerol, 1 mM ATP, 25 C (EMSA: 2 mM ATP, 37 C, then 0.2% glutaraldehyde). The note with it: protein: recombinant; label: 5' TAMRA on strand 1; blunt.

Data set [3] addresses T1, Rad51-L2. The data set can be described thus: FRET; 1 mM ATP; 1.40x B-form; 30 mM HEPES-KOH pH 7.5, 100 mM KCl, 3 mM MgCl2, 1 mM DTT, 5% glycerol, 1 mM ATP, 25 C (EMSA: 2 mM ATP, 37 C, then 0.2% glutaraldehyde). As to conditions: protein: recombinant; label: internal fluorescein and ROX.
Data set [4] addresses T3, Rad51-L1 (Schizosaccharomyces pombe, UniProt P36601 1-365, R257A).
T3 sequence: T1 sequence with R257A, A295V
The data set can be described thus: FRET; 1 mM ATP; elongation comparable to WT; 30 mM HEPES-KOH pH 7.5, 100 mM KCl, 3 mM MgCl2, 1 mM DTT, 5% glycerol, 1 mM ATP, 25 C (EMSA: 2 mM ATP, 37 C, then 0.2% glutaraldehyde). The note with it: protein: recombinant; label: internal fluorescein and ROX.

The target in data set [5] is T4, Rad51-S2 (Schizosaccharomyces pombe, UniProt P36601 1-365, R324A;K334A).
T4 sequence: T1 sequence with A295V, R324A, K334A
Described as above. The note with it: protein: recombinant; label: internal fluorescein and ROX.

In data set [6] the target is T2, Rad51 wild-type. The experiment in a line: FRET; 1 mM ATP; ssDNA elongated to 1.45x B-form; 30 mM HEPES-KOH pH 7.5, 100 mM KCl, 3 mM MgCl2, 1 mM DTT, 5% glycerol, 1 mM ATP, 25 C (EMSA: 2 mM ATP, 37 C, then 0.2% glutaraldehyde). As to conditions: protein: recombinant; label: internal fluorescein and ROX.
The target of data set [7] is T2, Rad51 wild-type. The data set can be described thus: FRET; 1 mM ATP; dsDNA elongated to 1.37x B-form; 30 mM HEPES-KOH pH 7.5, 100 mM KCl, 3 mM MgCl2, 1 mM DTT, 5% glycerol, 1 mM ATP, 25 C (EMSA: 2 mM ATP, 37 C, then 0.2% glutaraldehyde). As to conditions: protein: recombinant; label: internal fluorescein and ROX on strand 1; blunt.
Data set [8] deals with T1, Rad51-L2. The data set can be described thus: FRET; 1 mM ATP; reduced elongation, 1.28x B-form; 30 mM HEPES-KOH pH 7.5, 100 mM KCl, 3 mM MgCl2, 1 mM DTT, 5% glycerol, 1 mM ATP, 25 C (EMSA: 2 mM ATP, 37 C, then 0.2% glutaraldehyde). The note with it: protein: recombinant; label: internal fluorescein and ROX on strand 1; blunt.
Another data set concerns the target T5, Swi5-Sfr1 complex (UniProt Q9UUB7 1-85; Q9USV1 1-299).
T5 construct: Swi5, subunit of the Swi5-Sfr1 complex; Sfr1, subunit of the Swi5-Sfr1 complex; Over-expressed and purified as a preformed complex; detected in the co-IP by blots for Sfr1 and Swi5; No tag is mentioned; also called Swi5-Sfr1 auxiliary factor; source: E. coli BL21-Codonplus(DE3) RIPL, purified as a complex (ammonium sulfate, Q Sepharose, HiTrap Heparin, Superdex 200)
T5 sequence (looked up) 1: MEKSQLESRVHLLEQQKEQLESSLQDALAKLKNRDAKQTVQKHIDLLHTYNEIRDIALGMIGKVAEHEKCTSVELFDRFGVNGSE
T5 sequence (looked up) 2: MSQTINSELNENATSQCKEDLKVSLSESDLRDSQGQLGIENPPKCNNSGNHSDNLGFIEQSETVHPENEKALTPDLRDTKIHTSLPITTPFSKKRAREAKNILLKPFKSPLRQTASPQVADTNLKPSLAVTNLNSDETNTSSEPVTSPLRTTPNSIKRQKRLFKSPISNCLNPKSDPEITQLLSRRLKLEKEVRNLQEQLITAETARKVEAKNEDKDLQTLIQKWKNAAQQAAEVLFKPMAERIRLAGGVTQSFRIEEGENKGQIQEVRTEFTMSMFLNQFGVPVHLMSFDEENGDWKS
The data set can be described thus: co-IP; purified Rad51 (2.5 uM) and Swi5-Sfr1 (2.5 uM) mixed in 30 mM Tris-HCl pH 7.5, 20 mM KCl, 3 mM MgCl2, 1 mM DTT, 5% glycerol, 0.05% NP-40, 30 min at 4 °C; precipitated with rabbit anti-Rad51 antibody and protein G magnetic beads; western blots for Rad51, Sfr1 and Swi5. The note with it: both partners purified.

Data set [9] addresses T4, Rad51-S2. The data set can be described thus: fluorescence anisotropy; 1 mM ATP, 3 mM MgCl2; Hill n 2.25; 30 mM HEPES-KOH pH 7.5, 100 mM KCl, 3 mM MgCl2, 1 mM DTT, 5% glycerol, 1 mM ATP, 25 C (EMSA: 2 mM ATP, 37 C, then 0.2% glutaraldehyde). The note with it: protein: recombinant; label: 5' TAMRA.
Data set [10] concerns the target T1, Rad51-L2. The experiment in a line: fluorescence anisotropy; 1 mM ATP, 3 mM MgCl2; Hill n 2.59; 30 mM HEPES-KOH pH 7.5, 100 mM KCl, 3 mM MgCl2, 1 mM DTT, 5% glycerol, 1 mM ATP, 25 C (EMSA: 2 mM ATP, 37 C, then 0.2% glutaraldehyde). As to conditions: protein: recombinant; label: 5' TAMRA.
Data set [11] addresses T2, Rad51 wild-type. The data set can be described thus: fluorescence anisotropy; 1 mM ATP, 3 mM MgCl2; Hill n 2.86; 30 mM HEPES-KOH pH 7.5, 100 mM KCl, 3 mM MgCl2, 1 mM DTT, 5% glycerol, 1 mM ATP, 25 C (EMSA: 2 mM ATP, 37 C, then 0.2% glutaraldehyde). As to conditions: protein: recombinant; label: 5' TAMRA.
For data set [12], the target named is T3, Rad51-L1. The experiment in a line: fluorescence anisotropy; 1 mM ATP, 3 mM MgCl2; Hill n 2.94; 30 mM HEPES-KOH pH 7.5, 100 mM KCl, 3 mM MgCl2, 1 mM DTT, 5% glycerol, 1 mM ATP, 25 C (EMSA: 2 mM ATP, 37 C, then 0.2% glutaraldehyde). The note with it: protein: recombinant; label: 5' TAMRA.

Residue numbers refer to the chain shown, from its start. In names and notes the source's numbering stands.

B1: [TAMRA]16A(-)_72 bp duplex (dsDNA)
DNA 1: AAATGAACATAAAGTAAATAAGTATAAGGATAATACAAAATAAGTAAATGAATAAACATAGAAAATAAAGTA
DNA 2: TACTTTATTTTCTATGTTTATTCATTTACTTATTTTGTATTATCCTTATACTTATTTACTTTATGTTCATTT
On to B1, for which the results for the Kd in the data set with Rad51-L2 [1] and with Rad51 wild-type [2] were 3520 ± 310 nM and 2610 ± 200 nM, respectively.

B2: 16(A)(-)_F+R_73 ssDNA (ssDNA)
DNA: AAATGAACATAAAGTAAATAAGTATAAGGATAATACAAAATTAAGTAAATGAATAAACATAGAAAATAAAGTA
modifications: fluorescein-dT at 31; ROX-dT at 42
Turning to B2, the binding result in the data set with Rad51-L2 [3], with Rad51-L1 [4], with Rad51-S2 [5] and with Rad51 wild-type [6] was “binds” in each case.

B3: 16(A)(-)_F+R_73 bp duplex (dsDNA)
DNA 1: B2 DNA
DNA 2: TACTTTATTTTCTATGTTTATTCATTTACTTAATTTTGTATTATCCTTATACTTATTTACTTTATGTTCATTT
modifications: fluorescein-dT at 31 and ROX-dT at 42 of strand 1
For the molecule B3, the binding result in the data set with Rad51 wild-type [7] and with Rad51-L2 [8] was “binds” in each case.

B4: wild-type Rad51 from the fission yeast Schizosaccharomyces pombe (natural protein, UniProt P36601 1-365, looked up)
chain: T1 sequence with A295V
notes: Rad51 recombinase, Schizosaccharomyces pombe; No tag is mentioned; purification is by conventional chromatography; also called SpRad51; WT
In the case of B4, the binding result in the data set with Swi5-Sfr1 complex was “binds”.

B5: Rad51-L2 mutant (V295A in loop 2) (natural protein, Schizosaccharomyces pombe, UniProt P36601 1-365, looked up)
chain: T1 sequence
notes: Rad51 recombinase, Schizosaccharomyces pombe, with V295A in L2; source: E. coli BL21-Codonplus(DE3) RIPL, purified (same procedure as wild-type Rad51)
Take B5: in the data set with Swi5-Sfr1 complex, the binding result was “binds”.

B6: Rad51-S2 mutant (R324A and K334A in site II) (natural protein, Schizosaccharomyces pombe, UniProt P36601 1-365, looked up)
chain: T1 sequence with A295V, R324A, K334A
notes: Rad51 recombinase, Schizosaccharomyces pombe, with R324A and K334A in site II; source: E. coli BL21-Codonplus(DE3) RIPL, purified (same procedure as wild-type Rad51)
Take B6: in the data set with Swi5-Sfr1 complex, the binding result is “binds”.

B7: Rad51-L1 mutant (R257A in loop 1) (natural protein, Schizosaccharomyces pombe, UniProt P36601 1-365, looked up)
chain: T1 sequence with R257A, A295V
notes: Rad51 recombinase, Schizosaccharomyces pombe, with R257A in L1; source: E. coli BL21-Codonplus(DE3) RIPL, purified (as wild-type Rad51, with a HiTrap Blue column instead of HiTrap Heparin)
For B7, in the data set with Swi5-Sfr1 complex, the binding result is listed as “binds”.

B8: [TAMRA]dT72 (ssDNA)
DNA: TTTTTTTTTTTTTTTTTTTTTTTTTTTTTTTTTTTTTTTTTTTTTTTTTTTTTTTTTTTTTTTTTTTTTTTT
On to B8, for which the equilibrium dissociation constant (Kd) with Rad51-S2 [9] was 895 ± 55 nM; with Rad51-L2 [10] it was 308 ± 19 nM; in the data set with Rad51 wild-type [11], 358 ± 25 nM; with Rad51-L1 [12] it was 664 ± 18 nM.
